The test system of data set [1] is 5-FU treated mouse bone marrow cells. The data set can be described thus: HPP-CFC assay. As to conditions: COS-1 supernatant. The class given is cell-based. An excerpt:
There are a variety of biological activities which can be attributed to the natural mammalian rat SCF as well as the recombinant rat SCF protein. One such activity is its effect on early hematopoietic cells. This activity can be measured in a High Proliferative Potential Colony Forming Cell (HPP-CFC) assay [Zsebo, et al., supra (1988)]. To investigate the effects of factors on early hematopoietic cells, the HPP-CFC assay system utilizes mouse bone marrow derived from animals 2 days after 5-fluorouracil (5-FU) treatment. […] The rat SCF is plated in the presence of CSF-1 or IL-6 in semi-solid agar cultures. The agar cultures contain McCoys complete medium (GIBCO), 20% fetal bovine serum, 0.3% agar, and 2×10^5 bone marrow cells/ml. The McCoys complete medium contains the following components: 1× McCoys medium supplemented with 0.1 mM pyruvate, 0.24× essential amino acids, 0.24× non-essential amino acids, 0.027% sodium bicarbonate, 0.24× vitamins, 0.72 mM glutamine, 25 μg/ml L-serine, and 12 μg/ml L-asparagine. The bone marrow cells are obtained from Balb/c mice injected i.v. with 150 mg/kg 5-FU. The femurs are harvested 2 days post 5-FU treatment of the mice and bone marrow is flushed out. The red blood cells are lysed with red blood cell lysing reagent (Becton Dickenson) prior to plating. Test substances are plated with the above mixture in 30 mm dishes. Fourteen days later the colonies (>1 mm in diameter) which contain thousands of cells are scored. This assay was used throughout the purification of natural mammalian cell-derived rat SCF.

In data set [2] the test system is murine mast cell line, MC/9. Briefly: MC/9 ^3H-thymidine uptake assay. It is filed as cell-based. Here is the method: Another useful biological activity of both naturally-derived and recombinant rat SCF is the ability to cause the proliferation of the […] murine mast cell line, MC/9 (ATCC CRL 8306). MC/9 cells are cultured with a source of […] according to the ATCC CRL 8306 protocol. The medium used in the bioassay is RPMI 1640, 4% fetal bovine serum, 5×10^−5M 2-mercaptoethanol, and 1× glutamine-pen-strep. The MC/9 cells proliferate in response to SCF without the requirement for other growth factors. This proliferation is measured by first culturing the cells for 24 h without growth factors, plating 5000 cells in each well of 96 well plates with test sample for 48 h, pulsing for 4 h with 0.5 uCi ^3H-thymidine (specific activity 20 Ci/mmol), harvesting the solution onto glass fiber filters, and then measuring specifically-bound radioactivity. This assay was used in the purification of mammalian cell derived rat SCF after the ACA 54 gel filtration step, section C2 of this Example. Typically, SCF caused a 4–10 fold increase in CPM over background.

The test system of a further data set is W/W^v mice. The data set can be described thus: Bone marrow transplantation model in W/W^v mice. It is filed as in vivo, mouse. On the procedure:
A. Rat SCF in Bone Marrow Transplanation COS-1 cells were transfected with V19.8 SCF^1-162 in a large scale experiment (T175 cm^2 flasks instead of 60 mm dishes) as described in Example 4. Approximately 270 ml of supernatant was harvested. This supernatant was chromatographed on wheat germ agglutinin-agarose and S-Sepharose essentially as described in Example 1. The recombinant SCF was evaluated in a bone marrow transplantation model based on murine W/W^v genetics. The W/W^v mouse has a stem cell defect which among other features results in a macrocytic anemia (large red cells) and allows for the transplantation of bone marrow from normal animals without the need for irradiation of the recipient animals [Russel, et al., Science, 144, 844–846 (1964)). […]
In the following example, each group contained six age matched mice. […] The blood profile of the recipient animals is followed at different times post transplantation and engraftment of the donor marrow is determined by the shift of the peripheral blood cells from recipient to donor phenotype. The conversion from recipient to donor phenotype is detected by monitoring the forward scatter profile (FASCAN, Becton Dickenson) of the red blood cells. […] An independent qualitative indicator of engraftment is the hemoglobin type detected by hemoglobin electrophoresis of the recipient blood [Wong, et al., Mol. and Cell. […]

In the next data set the test system is normal human bone marrow. The data set can be described thus: Human CFU-GM assay. The class given is cell-based.
The next data set concerns KG-1. Briefly: KG-1 soft agar cloning assay. It is filed as cell-based, human. The following applies: COS-1 supernatant, 25 μl assayed; triplicate. On the procedure:
Another activity of recombinant human SCF is the ability to cause proliferation in soft agar of the human acute myelogenous leukemia (AML) cell line, KG-1 (ATCC CCL 246). COS-1 supernatants from transfected cells were tested in a KG-1 agar cloning assay [Koeffler et al., Science, 200, 1153–1154 (1978)] essentially as described except cells were plated at 3000/ml.

Another data set has as its system human bone marrow. The data set can be described thus: Human bone marrow colony assay. The class given is cell-based. As to conditions: COS-1 CM, 20 U/ml EPO, 14 days, colonies ≥0.2 mm. On the procedure:
The cDNA of human SCF corresponding to amino acids 1–162 obtained by PCR reactions outlined in Example 3D, was expressed in COS-1 cells as described for the rat SCF in Example 4. COS-1 supernatants were assayed on human bone marrow as well as in the murine HPP-CFC and MC/9 assays. […] The culture conditions of the assay were as follows: human bone marrow from healthy volunteers was centrifuged over Ficoll-Hypaque gradients (Pharmacia) and cultured in 2.1% methyl cellulose, 30% fetal calf serum, 6×10^−5 M 2-mercaptoethanol, 2 mM glutamine, ISCOVE'S medium (GIBCO), 20 U/ml EPO, and 1×10^5 cells/ml for 14 days in a humidified atmosphere containing 7% O2, 10% CO2, and 83% N2. Only those colonies of 0.2 mm in size or larger are indicated.
Recombinant human SCF was tested in agar colony assays on human bone marrow in combination with other growth factors as described above.

The next data set concerns irradiated dogs. Briefly: Canine DLA-identical littermate marrow transplantation. It is filed as in vivo, dog. The following applies: 920 cGy TBI + marrow. The text has this: SCF alone enhances hematopoietic recovery following bone marrow transplantation. A variety of experimental variables have been tested in a canine model of bone marrow transplantation, Schuening et al., 76 636–640. In one set of experiments for the present invention, dogs received either G-CSF or SCF after 920 cGy of total body irradiation and 4×10^8 mononuclear marrow cells per kilogram from a DLA-identical littermate. The hematologic recovery, as measured by day of neutrophil recovery to 500 or 1000/mm^3, is accelerated when either SCF or G-CSF is administered compared to control animals that received no growth factor (Table 21). Recovery was 2–6 days earlier in animals that received SCF than it was in those that received no growth factor. As noted above, combinations of appropriate growth factors with SCF will accelerate and enhance the response to those growth factors following hematopoietic transplantation.

B1: V19.8 rat SCF^1-162: recombinant rat SCF truncated at amino acid 162, supernatant of COS-1 or CHO cells transfected with V19.8 (protein)
chain: MKKTQTWIITCIYLQLLLFNPLVKTQEICRNPVTDNVKDITKLVANLPNDYMITLNYVAGMDVLPSHCWLRDMVTHLSVSLTTLLDKFSNISEGLSNYSIIDKLGKIVDDLVACMEENAPKNVKESLKKPETRNFTPEEFFSIFNRSIDAFKDFMVASDTSD
With B1, the “Colony #/200,000 cells” value in data set [1] (3 μl CM assayed) is 8; in data set [1] (6 μl CM assayed), 30; in data set [1] (12 μl CM assayed) it was above 50; in data set [1] (25 μl CM assayed), above 50; in data set [1] (50 μl CM assayed), above 50; in data set [1] (100 μl CM assayed), above 50. Besides, the cpm is given as 9,638 cpm in data set [2] (COS-1 supernatant, 3 μl CM assayed); 11,482 cpm in data set [2] (COS-1 supernatant, 6 μl CM assayed); 11,322 cpm in data set [2] (COS-1 supernatant, 12 μl CM assayed); 11,648 cpm in data set [2] (COS-1 supernatant, 25 μl CM assayed); 7,160 cpm in data set [2] (stable CHO cell supernatant, volume assayed 1.5); 14,714 cpm in data set [2] (stable CHO cell supernatant, volume assayed 3). In addition, the cpm in data set [2] (stable CHO cell supernatant, volume assayed 6) was 30,657 cpm; in data set [2] (stable CHO cell supernatant, volume assayed 12), 34,973 cpm; in data set [2] (stable CHO cell supernatant, volume assayed 25), 33,926 cpm. Moreover, the “time to conversion to donor phenotype” value in the data set on W/W^v mice (SCF pre-treated group (600 U/ml, 37° C., 20 min)) is reported as at most 29 days post-transplantation. Besides, the “engraftment of donor marrow vs untreated control” value in the data set with W/W^v mice (cells pre-treated with 600 U/ml or recipients ~400 U/day sub-Q for 3 days) was “engrafted faster”. The “synergistic activity in CFU-GM assay” value with normal human bone marrow is “synergized with human GM-CSF, human IL-3, and human CSF-1”. Further, the “Colony #/100,000 cells (±SEM)” value with normal human bone marrow (average of triplicate cultures, SCF = COS-1 supernatant 4 days after transfection) is listed as 0. Besides, the “Colony #/3000 Cells ± SD” value with KG-1 is 6 ± 1. Also, the “Colony #/100,000 cells ± SD” value in the data set with human bone marrow (50 μl assayed) stood at 10; with human bone marrow (100 μl assayed), 13 ± 1.

B2: rcG-CSF: recombinant canine G-CSF (protein, UniProt P35834 1-175, looked up)
Granulocyte …: MAPLGPTGPLPQSFLLKCLEQMRKVQADGTALQETLCATHQLCHPEELVLLGHALGIPQPPLSSCSSQALQLMGCLRQLHSGLFLYQGLLQALAGISPELAPTLDTLQLDTTDFAINIWQQMEDLGMAPAVPPTQGTMPAFTSAFQRRAGGVLVASNLQSFLELAYRALRHFAKP
With B2, in the data set on irradiated dogs (10 days treatment following transplant), the “Recovery of ANC > 1000/mm^3” value is on record as “Day 8”. Further, the “Recovery of ANC > 500 mm^3” value in the data set on irradiated dogs (10 days treatment following transplant (rcSCF 200, rcG-CSF 10 μg/kg/day SC)) is “Day 7”.

For the origin of these results see patent publication US7144731B2, “SCF antibody compositions and methods of using the same” (Amgen Inc., priority 1989, dated 2006).
